# Test results published in the supplement of paper PMC12764529.
# ± gives the half width of the 95% confidence interval.
# Experiment: folding stability dG unfold from trypsin proteolysis; higher = more stable
# Method in brief: (§1)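 Unfolding free energy was derived, per protease or combined, by relating Bayesian-fitted K50 values from sequencing counts to a sequence-predicted unfolded-state K50 and a shared folded-state K50. The underlying digests exposed cysteine-free mini-proteins under 80 residues, in a PA-tagged cDNA display construct, to trypsin and chymotrypsin at 11 threefold-diluted concentrations and to a no-protease condition. A filter kept only designs with AlphaFold2 dimer inter-PAE above 15.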
row,Sequence,folding stability dG unfold [kcal/mol]
1,SAMNLKTFKIEVPDGKIFTIPPNYKAEIVEYDPEKGVVTIKLTAYETNPLKEVEKKEFSFKFKFLEEFPSAG [r14_927_TrMRF],1.181 ± 0.011
2,SAVLRIPNPITGEVRTLTLPTEVPAVSPDGVTSFRSPENLAAAIRALPSDVKVLSVVEHPDGTVTIVVDPSA [r9_997_TrMRF],0.102 ± 0.059
3,SAGGSAGGSADNWFIQIKWRHPENGKKRTLHIPFKTPWDVEEIVEELAPPGMDEVEVKIYPFSAGGSAGGSA [r18_258_TrROS],0.707 ± 0.051
4,SAGGVLETKLPGGVSVTYSETPFVKDGREYLVLPAAAGDPAGAPFVTTTVVEPETGEVLETTETPLASAGGS [r8_492_JUSTAS],0.331 ± 0.059
5,SAGGSAPLVATEVSVEGNTIVVRSVTRLPNGTLSEDVVLIELPPLPLPPPAPWSTFPETGRLRLGPSAGGSA [r15_335_JUSTAS],0.159 ± 0.15
6,SAGGSAGGDTITIWIPGMPLEELRDLLKAFFPGKDVSVEYDPEHGSFVLTVNGKKITIHIMPPNSAGGSAGG [r6_609_TrROS],3.89 ± 0.1
7,SAGGSAGGSAGGKKYKPVKKIKVNGKTYTIIKKDGKYIIYDEKTKKKIVIKPGEKIKIKSAGGSAGGSAGGS [r10_559_TrROS_Hall],0.621 ± 0.045
8,SAGGSAGGSPKIEIEQDPNGWWRVKIRPPDGKKRPINIPPGDPEKILDEAEENGWKIDEIEPWSAGGSAGGS [r12_891_TrROS],-0.045 ± 0.2
9,SAGWRMTIWVQYELPPGMPPERAKEAVRDIIRDIMRRFGLPMPPGMKIDIEPVEPSNDYVYYKVTIEFPSAG [r14_735_TrROS],4.37 ± 0.26
10,SAGGDYWVFKIEITHRNPNGEPEKWDIFIWFDPDDPDMPAKELADWIAKYLAPNNGYEVKIEEIYPVSAGGS [r8_101_TrROS],3.25 ± 0.15
11,SAGGSAMPVKTSTTTEGDTVTTYTLEPVGGSTTLTTTTTTVTKTNSGTTTTSTTTTTPLPTASGATSAGGSA [r15_725_JUSTAS],-0.0787 ± 0.022
12,SAGGPLGNLTLDQIVDLVREAFPDLPVRVDVEPIDEETGYVRVTVEPPLPNGGTARAEFILPILPDDSAGGS [r16_564_TrMRF],0.787 ± 0.019
13,SAGGTAEEIAEKVRDIFQDNGYPIEVEPRRWDPNNYVTWRMRMPGWSIEIQWDPDDLEVEIEIEPMPSAGGS [r8_157_TrROS],2.47 ± 0.073
14,SAEPEVEYVVIELEVTIELAPGQEAPTADEIAEALRAALEAAGAEITSVEVEVRDGQVTVRVTIVLPKKASA [r9_1134_TrROS_Hall],3.53 ± 0.086
15,SAGGSAGGSAGDSPSTPVLVTETFTFPVTVTAPNEGGYSTTTSTVTVTVTLEVYVSPSFPSAGGSAGGSAGG [r17_186_JUSTAS],2.2 ± 0.053
16,SAGGSAGGSAGGAPNAPKPVLVFAEVTVTSVEYDPETGELRIEVELPDGGEKLTFRLPLSAGGSAGGSAGGS [r10_427_TrMRF],1.93 ± 0.031
17,SAGGSAGGRRIYLPDFGAGGSGLVKAAEIAAAFEEEGYVASVSFSTSPFGPSVLVVDVASPSELSAGGSAGG [r6_597_TrMRF],-0.606 ± 0.17
18,SAGGSAGGSALVVRLENGKEILIEGMSEEEIKELLDKLLPPEEKKNLKIVKVEVFEVEKPESAGGSAGGSAG [r3_340_TrROS_Hall],1.62 ± 0.1
19,SAGGSAKEEIRLVIEVDGKLIEITIPKDKITKVEFDKETGKITITVKVNGKELKLVFTDGKAKLVESAGGSA [r15_598_TrROS_Hall],2.27 ± 0.14
20,SAGGSAGGSAGNTIEIEINGKPIYVEFEPLPEGMVKVKIYFPDGKKEEITLPANDPIKIGSAGGSAGGSAGG [r11_525_TrROS],1.53 ± 0.068
21,SMKPNEKFPSLEEVKEAAKRIAEEIEKKTGKKIEVEVKVETVKKEDGKEVVKITIVDKKTKKVIKEIEIKSA [r9_794_TrROS_Hall],2.18 ± 0.096

row,Sequence,folding stability dG unfold [kcal/mol]
1,SAGGSAGGSAMTVPLDTLTPERLRELLAENPERVVLKSADSVLVLSRDPATGRLTVTSHELRSAGGSAGGSA [r18_75_JUSTAS],0.951 ± 0.011
2,SAGGSAGGSAGSMVTKTTTVEEKIGPGNLKLVKEKITIYDPSTGKPIKEETKITIEPVLLSAGGSAGGSAGG [r17_317_JUSTAS],-0.493 ± 0.16
3,SAGGSAGGSAGETITVKIVRFKPGSPEVRKLAEKLGLSEEEVEPVEVFTFKSEEELKAALSAGGSAGGSAGG [r11_83_TrROS_Hall],-0.172 ± 0.12
4,SAKASELLKKLPFEAEIEEGEEFVKIKLKNPFLKNPNVTFEFEIPTKKGKPIKVKVTLTKNGAEKIEPSSAG [r14_401_TrMRF],2.57 ± 0.14
5,SAMILPKTVPKTITYPGSEEEARAVAEAEAARLKAQGNVTVDITFVKKSPEGGYTIEITITDYAPPELLSAG [r14_413_JUSTAS],0.77 ± 0.12
6,SPDPGMKPRPMYMIRIKIEVTTPDGKKRGKHDFIIQSPEEAKEFIEELAENRGMKIKKIDIDIYPMPWLKSA [r9_1226_TrROS],1.5 ± 0.044
7,SAGGSAGGSPIDITDIEVEQHEHPDGQQYHEVKIRLPDGRPIKIWMSPGSTPDQVLKQAKEFISAGGSAGGS [r12_1047_TrROS],-0.137 ± 0.12
8,SAGGSAGGSAGPMYIITHTSPNEPIEFIFPPDDAEEFLKKLKLPPNMNIKVEPIDPDDMKSAGGSAGGSAGG [r17_395_TrROS],0.0355 ± 0.07
9,SAGGSANWVKVEVKIPGGLKIEVWVPPGMSKEENQEKAQEMADEMAQMLRQMRENRKEGKPPTIDFSAGGSA [r15_704_TrROS],0.819 ± 0.08
10,SAGGSAGGSAGKKKIIILINENMKEEEIVDYIKKKYGKNVKIEEIIPISPNIKIIKVIIDSAGGSAGGSAGG [r11_580_TrMRF],3.96 ± 0.12
11,SKKITIEIELYRNPETKKLPLKLKAYNENGEPLGELEIEFTESPEEALEKALALAKELAESNDAEITFGLSA [r9_31_TrMRF],1.38 ± 0.041
12,SAGGEKKVLIVKVEIKLINNGGEFEAEFVFPEDVTLEEILAKVKELLPPGAKAEIKIKEIKLVSEDGSAGGS [r16_393_TrMRF],3.93 ± 0.18
13,SAGGSAGGSPEEFEIKIVEPTPIEINPNGSVSLTFTVPNGWYLRIMIMRPPDGNPQPMIMIIPSAGGSAGGS [r20_240_TrROS],2.86 ± 0.086
14,SAGGSAGGSARRDEVVERARERLLEEHPDLKPGETATVVVRDPETDEVYVFRFDGDGRVYGSAGGSAGGSAG [r3_441_TrMRF],0.59 ± 0.09
15,SPPHWMIMPTVERKDPNGEKKTVTYMIPVPPGNWDKMLDNIADEAGDPDLKIKEIEPSKNGFIMIKLKVKSA [r9_1101_TrROS],0.497 ± 0.17
16,SAGGSIEEIAETLRDLLAPPEYEVDVEVVEVEVDPINPRIKRVRLKATVYPPDGSSREIEFEIPFDELSAGG [r13_215_TrMRF],1.68 ± 0.042
17,SAMKIEPVPDPEHGRTYYTIKFKGAEVQIWENPGQYYISIRPPGNNKQIVIPAPPNDIDDILKELGIKPSAG [r14_4_TrROS],1.06 ± 0.032
18,SAGGSAEEEEARRLAEELARRLEEEGYEIERVEVRVERLPDGTVRITVRVYRKDGKPVLELEITLPSAGGSA [r15_232_TrROS_Hall],4.54 ± 0.19
19,SAGGSAGGSAEITVEWPNGRPVTVEPDPDSGMYEARFPDGWVVRAPFTNGKIPIDWIPPKDVSAGGSAGGSA [r18_405_TrROS],-0.578 ± 0.28
20,SAGGSPNIQVNVERDPKDGYIKFSITVPPGAPNMKIKIAIFENDKIVEKEEITMPPGKTTEYTFKIKSAGGS [r16_412_TrROS],3.29 ± 0.16
21,SAGGSAGGSAGGVIKTFTSPDNKKYTVTVNKDGSVTVETFDPETGKKSISTVSAAEASLSAGGSAGGSAGGS [r10_838_JUSTAS],1.32 ± 0.029

# Experiment: folding stability dG unfold from chymotrypsin proteolysis; higher = more stable
# Method in brief: as §1
row,Sequence,folding stability dG unfold [kcal/mol]
1,SAMNLKTFKIEVPDGKIFTIPPNYKAEIVEYDPEKGVVTIKLTAYETNPLKEVEKKEFSFKFKFLEEFPSAG [r14_927_TrMRF],1.62 ± 0.082
2,SAVLRIPNPITGEVRTLTLPTEVPAVSPDGVTSFRSPENLAAAIRALPSDVKVLSVVEHPDGTVTIVVDPSA [r9_997_TrMRF],-0.414 ± 0.15
3,SAGGSAGGSADNWFIQIKWRHPENGKKRTLHIPFKTPWDVEEIVEELAPPGMDEVEVKIYPFSAGGSAGGSA [r18_258_TrROS],1.25 ± 0.091
4,SAGGVLETKLPGGVSVTYSETPFVKDGREYLVLPAAAGDPAGAPFVTTTVVEPETGEVLETTETPLASAGGS [r8_492_JUSTAS],0.536 ± 0.13
5,SAGGSAPLVATEVSVEGNTIVVRSVTRLPNGTLSEDVVLIELPPLPLPPPAPWSTFPETGRLRLGPSAGGSA [r15_335_JUSTAS],0.76 ± 0.21
6,SAGGSAGGDTITIWIPGMPLEELRDLLKAFFPGKDVSVEYDPEHGSFVLTVNGKKITIHIMPPNSAGGSAGG [r6_609_TrROS],4.45 ± 0.061
7,SAGGSAGGSAGGKKYKPVKKIKVNGKTYTIIKKDGKYIIYDEKTKKKIVIKPGEKIKIKSAGGSAGGSAGGS [r10_559_TrROS_Hall],2.21 ± 0.034
8,SAGGSAGGSPKIEIEQDPNGWWRVKIRPPDGKKRPINIPPGDPEKILDEAEENGWKIDEIEPWSAGGSAGGS [r12_891_TrROS],0.631 ± 0.14
9,SAGWRMTIWVQYELPPGMPPERAKEAVRDIIRDIMRRFGLPMPPGMKIDIEPVEPSNDYVYYKVTIEFPSAG [r14_735_TrROS],5.52 ± 0.15
10,SAGGDYWVFKIEITHRNPNGEPEKWDIFIWFDPDDPDMPAKELADWIAKYLAPNNGYEVKIEEIYPVSAGGS [r8_101_TrROS],5 ± 0.1
11,SAGGSAMPVKTSTTTEGDTVTTYTLEPVGGSTTLTTTTTTVTKTNSGTTTTSTTTTTPLPTASGATSAGGSA [r15_725_JUSTAS],-0.108 ± 0.074
12,SAGGPLGNLTLDQIVDLVREAFPDLPVRVDVEPIDEETGYVRVTVEPPLPNGGTARAEFILPILPDDSAGGS [r16_564_TrMRF],1.26 ± 0.066
13,SAGGTAEEIAEKVRDIFQDNGYPIEVEPRRWDPNNYVTWRMRMPGWSIEIQWDPDDLEVEIEIEPMPSAGGS [r8_157_TrROS],3.71 ± 0.11
14,SAEPEVEYVVIELEVTIELAPGQEAPTADEIAEALRAALEAAGAEITSVEVEVRDGQVTVRVTIVLPKKASA [r9_1134_TrROS_Hall],3.51 ± 0.17
15,SAGGSAGGSAGDSPSTPVLVTETFTFPVTVTAPNEGGYSTTTSTVTVTVTLEVYVSPSFPSAGGSAGGSAGG [r17_186_JUSTAS],2.92 ± 0.04
16,SAGGSAGGSAGGAPNAPKPVLVFAEVTVTSVEYDPETGELRIEVELPDGGEKLTFRLPLSAGGSAGGSAGGS [r10_427_TrMRF],2.44 ± 0.031
17,SAGGSAGGRRIYLPDFGAGGSGLVKAAEIAAAFEEEGYVASVSFSTSPFGPSVLVVDVASPSELSAGGSAGG [r6_597_TrMRF],-0.0496 ± 0.13
18,SAGGSAGGSALVVRLENGKEILIEGMSEEEIKELLDKLLPPEEKKNLKIVKVEVFEVEKPESAGGSAGGSAG [r3_340_TrROS_Hall],1.14 ± 0.096
19,SAGGSAKEEIRLVIEVDGKLIEITIPKDKITKVEFDKETGKITITVKVNGKELKLVFTDGKAKLVESAGGSA [r15_598_TrROS_Hall],2.6 ± 0.12
20,SAGGSAGGSAGNTIEIEINGKPIYVEFEPLPEGMVKVKIYFPDGKKEEITLPANDPIKIGSAGGSAGGSAGG [r11_525_TrROS],1.6 ± 0.045
21,SMKPNEKFPSLEEVKEAAKRIAEEIEKKTGKKIEVEVKVETVKKEDGKEVVKITIVDKKTKKVIKEIEIKSA [r9_794_TrROS_Hall],0.783 ± 0.076
